Source: patent publication US20220306768A1, “REDIRECTING DEATH-INDUCING SIGNAL COMPLEX (DISC) BY MODIFYING DEATH RECEPTOR AGONIST TO INDUCE CELL DEATH FOR CANCER TREATMENT” (CITY OF HOPE, priority 2021, published 2022)
“Also recorded” adds a separate entry of the source.

Key:
[1] = phase I studies (Herbst et al., 2010); cited from earlier work
[2] = tested on: NCI 60-cancer cell panel (60 different human cancer cell lines); assay: NCI 60-cancer cell panel, cell death; type: cell-based
Description: TAT-TRAIL was tested in an NCI 60-cancer cell panel, which included 60 different human cancer cell lines set up by the National Cancer Institute for cancer therapeutics screening. Among the 60 cell lines of various cancer types, 33 were sensitive to parental TRAIL, but 27 were resistant.

[3] = tested on: TRAIL-sensitive cancer cell lines; assay: Caspase activity in cancer cell lines (FIG. 8); type: cell-based
Excerpt: Of the 60 NCI cancer cell lines, 33 TRAIL-sensitive cells lines become more sensitive to TAT-TRAIL, while 17 of TRAIL-resistant cell lines become sensitive to TAT-TRAIL, only 10 cell lines remain resistant.

[4] = tested on: Hep3B cell line; assay: Cell viability in the Hep3B cell line (FIG. 9); type: cell-based; settings: after 48 hours
[5] = tested on: cancer cell lines; assay: Cell death induction in cancer cell lines (Example 1); type: cell-based
Excerpt: Redirecting TRAIL-induced signaling away from lysosomal degradation induced massive cell death and overcame TRAIL resistance. This was done by fusing bioactive protein transduction domains (PTD—or CPPs) and signaling peptides, such as TAT peptide from HIV TAT protein, NLS (nuclear localization signal), MTS (mitochondrial targeting sequence), with TRAIL to construct a series of new TRAILs, as shown in FIG. 7.

[6] = tested on: OVCAR3 cells; assay: Ovarian cancer xenograft model OVCAR3, implanted intraperitoneally; type: in vivo; settings: intraperitoneal implant, preliminary data, FIG. 6
Description: (§1) In vivo testing was performed using ovarian cancer xenograft models, OVCAR3 and A2780, implanted intraperitoneally.

[7] = tested on: A2780 cells; assay: Ovarian cancer xenograft model A2780, implanted intraperitoneally; type: in vivo; settings: intraperitoneal implant, preliminary data, FIG. 6
Description: as §1

[8] = of the 60 NCI cancer cell lines
[9] = among the 60 cell lines of various cancer types

## recombinant human TRAIL: recombinant human tumor necrosis factor-related apoptosis-inducing ligand tested in clinical studies
[1]
  tolerability: well tolerated

B1: TAT-TRAIL: fusion protein: TRAIL component fused to a 9-amino acid TAT peptide (RKKRRQRRR, SEQ ID NO:2); e.g. poly-His-TAT-hTRAIL94-281 (SEQ ID NO:3) (protein)
chain: HHHHHHRKKRRQRRRRTSEETISTVQEKQQNISPLVRERGPQRVAAHITGTRGRSNTLSSPNSKNEKALGRKINSWESSRSGHSFLSNLHLRNGELVIHEKGFYYIYSQTYFRFQEEIKENTKNDKQMVQYIYKYTSYPDPILLMKSARNSCWSKDAEYGLYSIYQGGIFELKENDRIFVSVTNEHLIDMDHEASFFGAFLVG
modifications: TAT-TRAIL
[2]; TRAIL-sensitive cell lines (33 of 60), FIG. 5
  cell death in TRAIL-sensitive cell lines compared with His-tagged parental TRAIL construct: faster and massive cell death in all 33 TRAIL-sensitive cell lines
[2]; cell lines resistant to parental TRAIL
  increase of potency over parental TRAIL: up to a hundred times
[2]; [8]
  number of TRAIL-sensitive cell lines that become more sensitive: 33
  number of cell lines that remain resistant: 10
[2]; out of the 27 cell lines resistant to parental TRAIL
  number of TRAIL-resistant cell lines in which effective cell death was executed (become sensitive): 17
[3]
  caspase activity compared to control and His-tagged parental TRAIL: higher caspase activity
[4]
  IC50 (cell viability): low
  potency as compared to the His-tagged parental TRAIL: approximately sixty times greater potency
[5]; TRAIL-resistant cancer cells
  cell death in TRAIL-resistant cancer cells: induced massive cell death in TRAIL-resistant cancer cells
[5]; cancer cell lines
  time to induce cell death: less than 1 hour
[5]; cancer cells and normal cells
  potency in inducing cell death, cancer cells versus normal cells: remarkable high potency in inducing cell death in cancer cells but not normal cells
[6]
  antitumor effects: notable antitumor effects; also recorded: remarkable antitumor effects
[7]
  antitumor effects: notable antitumor effects; also recorded: remarkable antitumor effects

B2: parental TRAIL: His-tagged parental TRAIL construct without TAT peptide, used as comparator (protein, UniProt P50591 39-281, looked up)
extracellular domain: TNELKQMQDKYSKSGIACFLKEDDSYWDPNDEESMNSPCWQVKWQLRQLVRKMILRTSEETISTVQEKQQNISPLVRERGPQRVAAHITGTRGRSNTLSSPNSKNEKALGRKINSWESSRSGHSFLSNLHLRNGELVIHEKGFYYIYSQTYFRFQEEIKENTKNDKQMVQYIYKYTSYPDPILLMKSARNSCWSKDAEYGLYSIYQGGIFELKENDRIFVSVTNEHLIDMDHEASFFGAFLVG
modifications: extracellular domain His tag
notes: His-tagged parental TRAIL construct without TAT peptide, used as comparator
[2]; [9]
  number of cell lines resistant to the agent: 27
  number of cell lines sensitive to the agent: 33
